Source: patent US20160361443A1, “Ultrasound Molecular Imaging With Targeted Biocompatible Microbubbles” (University of Pittsburgh - Of the Commonwealth System of …, priority 2015, published 2016)
Where no end group is shown, it is not given here.

Columns and labels:
human E-selectin [1] = target: T1, human E-selectin (Homo sapiens, UniProt P16581); conditions: cited from earlier work
T1 sequence (P16581 22-610): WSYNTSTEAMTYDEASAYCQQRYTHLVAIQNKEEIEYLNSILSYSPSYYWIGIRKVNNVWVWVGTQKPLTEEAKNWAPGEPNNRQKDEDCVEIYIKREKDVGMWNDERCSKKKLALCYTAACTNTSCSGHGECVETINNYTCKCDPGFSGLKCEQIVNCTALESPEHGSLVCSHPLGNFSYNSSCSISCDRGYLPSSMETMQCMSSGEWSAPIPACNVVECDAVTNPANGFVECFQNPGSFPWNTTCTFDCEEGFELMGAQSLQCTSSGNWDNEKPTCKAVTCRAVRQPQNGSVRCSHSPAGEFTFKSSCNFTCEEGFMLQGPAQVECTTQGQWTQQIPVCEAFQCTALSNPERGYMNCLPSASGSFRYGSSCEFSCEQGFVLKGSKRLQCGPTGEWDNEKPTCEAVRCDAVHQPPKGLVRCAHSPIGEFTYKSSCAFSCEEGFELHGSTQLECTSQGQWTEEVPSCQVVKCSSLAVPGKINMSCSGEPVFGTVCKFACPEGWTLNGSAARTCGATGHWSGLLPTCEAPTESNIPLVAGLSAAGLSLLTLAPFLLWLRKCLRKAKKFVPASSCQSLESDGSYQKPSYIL

human E-selectin [2] = target: T1, human E-selectin; conditions: static and flow-cell assays; cited from earlier work
[3] = target: rat E-selectin on inflamed (IL-1β-activated) rat heart microvascular endothelial cells / inflamed or post-ischemic rat endothelium (rat) (UniProt P98105); assay: cell-based or functional assay
[4] = target: rat E-selectin on inflamed (IL-1β-activated) rat heart microvascular endothelial cells / inflamed or post-ischemic rat endothelium (rat) (UniProt P98105); assay: parallel plate flow system, normal cultured rat ECs; control microbubble
[5] = target: rat E-selectin on inflamed (IL-1β-activated) rat heart microvascular endothelial cells / inflamed or post-ischemic rat endothelium (rat) (UniProt P98105); assay: parallel plate flow system, activated cultured rat ECs; control microbubble
[6] = target: rat E-selectin on inflamed (IL-1β-activated) rat heart microvascular endothelial cells / inflamed or post-ischemic rat endothelium (rat) (UniProt P98105); assay: parallel plate perfusion chamber, inflamed rat heart microvascular ECs; control microbubble
E-selectin [7] = assay: TNF-α induced E-selectin upregulation in HUVEC cells (immunostaining, electrophoresis gel); assay type: cell-based, human; conditions: TNFα 20 ng/mL for 4 hr vs without TNFα
Source text: FIG. 24 presents exempary data of TNF-α induced E-selectin upregulation by immunostaining of HUVEC cells.

E-selectin [8] = assay: RT-qPCR of heart after LPS injection, E-selectin mRNA; assay type: in vivo, rat; conditions: 4 hours post LPS injection
Experimental: (§1) Wistar Rats were intraperitoneally injected with lipopolysaccharide (LPS) in normal saline (dose: 1 mg/kg) to induce systemic inflammation. Four hours post-injection, rats were anesthetized and intubated.
(§2) LPS treated and untreated (i.e., baseline) hearts were harvested. RNA extraction and reverse transcriptase real-time quantitative polymerase chain reaction (RT-qPCR) for E-selectin, ICAM and glyceraldehyde 3-phosphate dehydrogenase (GAPDH, a house keeping gene) in the heart were performed. E-selectin and ICAM mRNA expression level were expressed as percent of GAPDH.

ICAM = assay: RT-qPCR of heart after LPS injection, ICAM mRNA; assay type: in vivo, rat; conditions: 4 hours post LPS injection
Experimental: as §1, §2

E-selectin [9] = target: T2, E-selectin (Rattus norvegicus, UniProt P98105); assay: Ultrasound molecular imaging with targeted MB (Mal) in LPS rat inflammation model; assay type: in vivo; conditions: 2×10^7 MB
T2 construct: Immunofluorescent staining in all rats consistently confirmed microvascular E-selectin and ICAM-1 expression in postischemic myocardium; from tissue
T2 sequence (P98105 22-549): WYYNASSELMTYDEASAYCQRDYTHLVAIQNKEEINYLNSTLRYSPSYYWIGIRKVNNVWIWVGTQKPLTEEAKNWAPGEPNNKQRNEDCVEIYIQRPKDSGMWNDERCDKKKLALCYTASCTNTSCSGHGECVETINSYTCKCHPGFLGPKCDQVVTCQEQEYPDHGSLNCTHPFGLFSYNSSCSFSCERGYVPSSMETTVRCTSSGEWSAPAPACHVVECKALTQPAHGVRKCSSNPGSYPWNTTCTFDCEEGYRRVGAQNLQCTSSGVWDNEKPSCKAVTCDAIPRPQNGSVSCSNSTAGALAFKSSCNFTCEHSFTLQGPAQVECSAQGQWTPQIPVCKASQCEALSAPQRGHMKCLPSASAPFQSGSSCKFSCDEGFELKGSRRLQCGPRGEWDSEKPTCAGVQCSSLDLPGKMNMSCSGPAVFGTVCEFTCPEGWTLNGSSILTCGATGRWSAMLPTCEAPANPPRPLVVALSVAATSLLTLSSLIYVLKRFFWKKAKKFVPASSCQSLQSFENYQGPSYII
Experimental: FIG. 26 presents exemplary data comparing myocardial retention of microbubble populations (2×10^7) either with, or without, a targeting ligand in an LPS rat inflammation model. The data were linearized and a two-phase washout model was fitted to obtain the retained MB concentration in the myocardium.
as §1
Each rat received intravenous injection of targeted MB Esel(MAL) and control MB IgG in random order (2×10^7 MB in 200 μL saline followed by a 200 μL saline flush). Baseline contrast ultrasound images were obtained before each microbubble injection and intermittent contrast ultrasound imaging were performed for 20 min to monitor the adhesion dynamics of MB in the myocardium. Acuson Sequoia 512 clinical ultrasound system (Siemens, Mountain View, Calif.) with a 15 L8 linear array transducer was used for imaging in CPS mode at 7 MHz.
Microbubble (MB) signals in the anterior myocardium and in the left ventricular cavity were also analyzed. […] Signal intensity was linearized and a two-phase washout model
was used to calculate the amount of MB retention in the myocardium.

Substance: H2NDITWDQLWDLMK-COOH (H-DITWDQLWDLMK-OH) [AF10166]
- Kd value (human E-selectin [1]; believed, from phage display library screening): low nanomolar range
- IC50 (human E-selectin [1]): 4.4 nM
- Neutrophil adhesion (human E-selectin [2]): blocks neutrophil adhesion

Substance: MBIgG: polymer/albumin double-shell microbubble bearing rat biotinylated immunoglobulin G (non-specific IgG, BD Biosciences) via biotin-streptavidin bridging (antibody)
- adherent microbubbles per field, intravital microscopy of TNF-α-inflamed rat cremaster microcirculation (control microbubble) [3]: 1.1 MBs/field
- background-subtracted videointensity, postischemic LAD bed (control microbubble) [3]: 1.7 dB
- myocardial videointensity, post-ischemic bed (control microbubble) [3]: 2 dB
- adherent microbubbles per endothelial cell (MB/EC) [4]: 2 MB/EC
- adherent microbubbles per endothelial cell (MB/EC) [5]: 2 MB/EC
- adherent microbubbles per endothelial cell (MB/EC) [6]: 2.3 MB/EC

Substance: TNFα
- E-selectin expression (in words) (E-selectin [7]): significant upregulation

Substance: lipopolysaccharide [LPS]
- Esel mRNA expression (E-selectin [8]): 2.28±1.32 % of GAPDH
- ICAM mRNA expression (ICAM): 6.09±3.14 % of GAPDH

Substance: targeted MB: Polymer microbubble conjugated to E-selectin targeting peptide by thioether bond (maleimide-thiol chemistry) (CDITWDQLWDLMK; not fully specified (residue 1); also: N-terminal Cys thioether to maleimide linker BM(PEG)3 on microbubble shell)
- Myocardial MB concentration, more as compared with control IgG MB injection (E-selectin [9]; 6 minutes post-injection, 4 h post LPS 1 mg/kg): 185%
- Retained MB in the myocardium (Ar term) as compared with control MB injection (E-selectin [9]; two-phase washout model fit, 4 h post LPS): 330%
